The text below walks through data of the RNAGym collection of RNA variant scans (doi:10.1021/acssynbio.7b00057).

The labels stand for the following.
B1: Pistol ribozyme (parent)
chain: GGGUCGUUGUUCCAUAAUCGCGUGGAUAUGGCACGCAAGUUUCUACCGGGCACCGUAAAUGUCCGACUGGAGCCGUUCGGGCGGCUAUAAACAGACCUCAGGCCCGAAGCGUGGCGGCACCUGCCGCCGGUGGUAAAAAAGAUCGGAAGAGCACACGUCU

The variants in the data set derive from B1. The data set is described as follows: aptazyme ON/OFF ratio, guanine; higher = stronger switching; co-transcriptional cleavage with and without guanine.
As for GGGUCGCUAGAGUAUAAUCGCGUGGAUAUGGCACGCAAGUUUCUACCGGGCACCGUAAAUGUCCGACUGGAGCCGUUCGGGCGGCUAUAAACAGACCUCAGGCCCGAAGCGUGGCGGCACCUGCCGCCGGUGGUAAAAAAGAUCGGAAGAGCACACGUCU, the “aptazyme ON/OFF ratio” value came out at 1.25.

For GGGUCGCUAGAGGAUAAUCGCGUGGAUAUGGCACGCAAGUUUCUACCGGGCACCGUAAAUGUCCGACUGGAGCCGUUCGGGCGGCUAUAAACAGACCUCAGGCCCGAAGCGUGGCGGCACCUGCCGCCGGUGGUAAAAAAGAUCGGAAGAGCACACGUCU, the “aptazyme ON/OFF ratio” value was 1.31.

Regarding GGGUCGCUAGAGAAUAAUCGCGUGGAUAUGGCACGCAAGUUUCUACCGGGCACCGUAAAUGUCCGACUGGAGCCGUUCGGGCGGCUAUAAACAGACCUCAGGCCCGAAGCGUGGCGGCACCUGCCGCCGGUGGUAAAAAAGAUCGGAAGAGCACACGUCU, the “aptazyme ON/OFF ratio” value stood at 1.15.

Consider GGGUCGCUAGAUGAUAAUCGCGUGGAUAUGGCACGCAAGUUUCUACCGGGCACCGUAAAUGUCCGACUGGAGCCGUUCGGGCGGCUAUAAACAGACCUCAGGCCCGAAGCGUGGCGGCACCUGCCGCCGGUGGUAAAAAAGAUCGGAAGAGCACACGUCU, for which the “aptazyme ON/OFF ratio” value was found to be 1.14.

For the variant GGGUCGCUAGAUUAUAAUCGCGUGGAUAUGGCACGCAAGUUUCUACCGGGCACCGUAAAUGUCCGACUGGAGCCGUUCGGGCGGCUAUAAACAGACCUCAGGCCCGAAGCGUGGCGGCACCUGCCGCCGGUGGUAAAAAAGAUCGGAAGAGCACACGUCU, the “aptazyme ON/OFF ratio” value is 1.18.

Take GGGUCGCUAGAUAAUAAUCGCGUGGAUAUGGCACGCAAGUUUCUACCGGGCACCGUAAAUGUCCGACUGGAGCCGUUCGGGCGGCUAUAAACAGACCUCAGGCCCGAAGCGUGGCGGCACCUGCCGCCGGUGGUAAAAAAGAUCGGAAGAGCACACGUCU: the “aptazyme ON/OFF ratio” value is 1.05.

As to GGGUCGCUAGUCGAUAAUCGCGUGGAUAUGGCACGCAAGUUUCUACCGGGCACCGUAAAUGUCCGACUGGAGCCGUUCGGGCGGCUAUAAACAGACCUCAGGCCCGAAGCGUGGCGGCACCUGCCGCCGGUGGUAAAAAAGAUCGGAAGAGCACACGUCU, the “aptazyme ON/OFF ratio” value amounted to 1.02.

Take GGGUCGCUAGUCUAUAAUCGCGUGGAUAUGGCACGCAAGUUUCUACCGGGCACCGUAAAUGUCCGACUGGAGCCGUUCGGGCGGCUAUAAACAGACCUCAGGCCCGAAGCGUGGCGGCACCUGCCGCCGGUGGUAAAAAAGAUCGGAAGAGCACACGUCU: the “aptazyme ON/OFF ratio” value is 1.34.

Regarding GGGUCGCUAGUCAAUAAUCGCGUGGAUAUGGCACGCAAGUUUCUACCGGGCACCGUAAAUGUCCGACUGGAGCCGUUCGGGCGGCUAUAAACAGACCUCAGGCCCGAAGCGUGGCGGCACCUGCCGCCGGUGGUAAAAAAGAUCGGAAGAGCACACGUCU, the “aptazyme ON/OFF ratio” value stood at 1.19.

As for GGGUCGCUAGCACAUAAUCGCGUGGAUAUGGCACGCAAGUUUCUACCGGGCACCGUAAAUGUCCGACUGGAGCCGUUCGGGCGGCUAUAAACAGACCUCAGGCCCGAAGCGUGGCGGCACCUGCCGCCGGUGGUAAAAAAGAUCGGAAGAGCACACGUCU, the “aptazyme ON/OFF ratio” value came to 1.28.

Take GGGUCGCUAGUAGAUAAUCGCGUGGAUAUGGCACGCAAGUUUCUACCGGGCACCGUAAAUGUCCGACUGGAGCCGUUCGGGCGGCUAUAAACAGACCUCAGGCCCGAAGCGUGGCGGCACCUGCCGCCGGUGGUAAAAAAGAUCGGAAGAGCACACGUCU: the “aptazyme ON/OFF ratio” value turned out to be 1.08.

Consider GGGUCGCUAGUAUAUAAUCGCGUGGAUAUGGCACGCAAGUUUCUACCGGGCACCGUAAAUGUCCGACUGGAGCCGUUCGGGCGGCUAUAAACAGACCUCAGGCCCGAAGCGUGGCGGCACCUGCCGCCGGUGGUAAAAAAGAUCGGAAGAGCACACGUCU, for which the “aptazyme ON/OFF ratio” value worked out at 1.19.

On to GGGUCGCUAGUAAAUAAUCGCGUGGAUAUGGCACGCAAGUUUCUACCGGGCACCGUAAAUGUCCGACUGGAGCCGUUCGGGCGGCUAUAAACAGACCUCAGGCCCGAAGCGUGGCGGCACCUGCCGCCGGUGGUAAAAAAGAUCGGAAGAGCACACGUCU, for which the “aptazyme ON/OFF ratio” value was 1.15.

Take GGGUCGCUAGUGCAUAAUCGCGUGGAUAUGGCACGCAAGUUUCUACCGGGCACCGUAAAUGUCCGACUGGAGCCGUUCGGGCGGCUAUAAACAGACCUCAGGCCCGAAGCGUGGCGGCACCUGCCGCCGGUGGUAAAAAAGAUCGGAAGAGCACACGUCU: the “aptazyme ON/OFF ratio” value is 1.28.

As to GGGUCGCUAGUACAUAAUCGCGUGGAUAUGGCACGCAAGUUUCUACCGGGCACCGUAAAUGUCCGACUGGAGCCGUUCGGGCGGCUAUAAACAGACCUCAGGCCCGAAGCGUGGCGGCACCUGCCGCCGGUGGUAAAAAAGAUCGGAAGAGCACACGUCU, the “aptazyme ON/OFF ratio” value was determined as 1.15.

As for GGGUCGCUAGUUCAUAAUCGCGUGGAUAUGGCACGCAAGUUUCUACCGGGCACCGUAAAUGUCCGACUGGAGCCGUUCGGGCGGCUAUAAACAGACCUCAGGCCCGAAGCGUGGCGGCACCUGCCGCCGGUGGUAAAAAAGAUCGGAAGAGCACACGUCU, the “aptazyme ON/OFF ratio” value turned out to be 1.33.

Consider GGGUCGCUAGCAAAUAAUCGCGUGGAUAUGGCACGCAAGUUUCUACCGGGCACCGUAAAUGUCCGACUGGAGCCGUUCGGGCGGCUAUAAACAGACCUCAGGCCCGAAGCGUGGCGGCACCUGCCGCCGGUGGUAAAAAAGAUCGGAAGAGCACACGUCU, for which the “aptazyme ON/OFF ratio” value is 1.2.

In the case of GGGUCGCUAGAGCAUAAUCGCGUGGAUAUGGCACGCAAGUUUCUACCGGGCACCGUAAAUGUCCGACUGGAGCCGUUCGGGCGGCUAUAAACAGACCUCAGGCCCGAAGCGUGGCGGCACCUGCCGCCGGUGGUAAAAAAGAUCGGAAGAGCACACGUCU, the “aptazyme ON/OFF ratio” value is 1.21.

With GGGUCGCUAGAACAUAAUCGCGUGGAUAUGGCACGCAAGUUUCUACCGGGCACCGUAAAUGUCCGACUGGAGCCGUUCGGGCGGCUAUAAACAGACCUCAGGCCCGAAGCGUGGCGGCACCUGCCGCCGGUGGUAAAAAAGAUCGGAAGAGCACACGUCU, the “aptazyme ON/OFF ratio” value was found to be 1.32.

With GGGUCGCUAGAUCAUAAUCGCGUGGAUAUGGCACGCAAGUUUCUACCGGGCACCGUAAAUGUCCGACUGGAGCCGUUCGGGCGGCUAUAAACAGACCUCAGGCCCGAAGCGUGGCGGCACCUGCCGCCGGUGGUAAAAAAGAUCGGAAGAGCACACGUCU, the “aptazyme ON/OFF ratio” value was determined as 1.05.

On to GGGUCGCUAGACAAUAAUCGCGUGGAUAUGGCACGCAAGUUUCUACCGGGCACCGUAAAUGUCCGACUGGAGCCGUUCGGGCGGCUAUAAACAGACCUCAGGCCCGAAGCGUGGCGGCACCUGCCGCCGGUGGUAAAAAAGAUCGGAAGAGCACACGUCU, for which the “aptazyme ON/OFF ratio” value was 1.06.

As for GGGUCGCUAGACUAUAAUCGCGUGGAUAUGGCACGCAAGUUUCUACCGGGCACCGUAAAUGUCCGACUGGAGCCGUUCGGGCGGCUAUAAACAGACCUCAGGCCCGAAGCGUGGCGGCACCUGCCGCCGGUGGUAAAAAAGAUCGGAAGAGCACACGUCU, the “aptazyme ON/OFF ratio” value stood at 1.03.

On to GGGUCGCUAGACGAUAAUCGCGUGGAUAUGGCACGCAAGUUUCUACCGGGCACCGUAAAUGUCCGACUGGAGCCGUUCGGGCGGCUAUAAACAGACCUCAGGCCCGAAGCGUGGCGGCACCUGCCGCCGGUGGUAAAAAAGAUCGGAAGAGCACACGUCU, for which the “aptazyme ON/OFF ratio” value was 1.04.

As to GGGUCGCUAGAAUAUAAUCGCGUGGAUAUGGCACGCAAGUUUCUACCGGGCACCGUAAAUGUCCGACUGGAGCCGUUCGGGCGGCUAUAAACAGACCUCAGGCCCGAAGCGUGGCGGCACCUGCCGCCGGUGGUAAAAAAGAUCGGAAGAGCACACGUCU, the “aptazyme ON/OFF ratio” value was 1.16.

For the variant GGGUCGCUAGAAGAUAAUCGCGUGGAUAUGGCACGCAAGUUUCUACCGGGCACCGUAAAUGUCCGACUGGAGCCGUUCGGGCGGCUAUAAACAGACCUCAGGCCCGAAGCGUGGCGGCACCUGCCGCCGGUGGUAAAAAAGAUCGGAAGAGCACACGUCU, the “aptazyme ON/OFF ratio” value is 1.09.

As for GGGUCGCUAGAAAAUAAUCGCGUGGAUAUGGCACGCAAGUUUCUACCGGGCACCGUAAAUGUCCGACUGGAGCCGUUCGGGCGGCUAUAAACAGACCUCAGGCCCGAAGCGUGGCGGCACCUGCCGCCGGUGGUAAAAAAGAUCGGAAGAGCACACGUCU, the “aptazyme ON/OFF ratio” value stood at 1.17.

As to GGGUCGCUAGACCAUAAUCGCGUGGAUAUGGCACGCAAGUUUCUACCGGGCACCGUAAAUGUCCGACUGGAGCCGUUCGGGCGGCUAUAAACAGACCUCAGGCCCGAAGCGUGGCGGCACCUGCCGCCGGUGGUAAAAAAGAUCGGAAGAGCACACGUCU, the “aptazyme ON/OFF ratio” value was determined as 1.06.

GGGUCGCUAGCCCAUAAUCGCGUGGAUAUGGCACGCAAGUUUCUACCGGGCACCGUAAAUGUCCGACUGGAGCCGUUCGGGCGGCUAUAAACAGACCUCAGGCCCGAAGCGUGGCGGCACCUGCCGCCGGUGGUAAAAAAGAUCGGAAGAGCACACGUCU: the “aptazyme ON/OFF ratio” value came to 1.08.

As for GGGUCGCUAGUCCAUAAUCGCGUGGAUAUGGCACGCAAGUUUCUACCGGGCACCGUAAAUGUCCGACUGGAGCCGUUCGGGCGGCUAUAAACAGACCUCAGGCCCGAAGCGUGGCGGCACCUGCCGCCGGUGGUAAAAAAGAUCGGAAGAGCACACGUCU, the “aptazyme ON/OFF ratio” value was determined as 1.42.

Consider GGGUCGCUAGUUGAUAAUCGCGUGGAUAUGGCACGCAAGUUUCUACCGGGCACCGUAAAUGUCCGACUGGAGCCGUUCGGGCGGCUAUAAACAGACCUCAGGCCCGAAGCGUGGCGGCACCUGCCGCCGGUGGUAAAAAAGAUCGGAAGAGCACACGUCU, for which the “aptazyme ON/OFF ratio” value was determined as 1.17.

As for GGGUCGCUAGUUAAUAAUCGCGUGGAUAUGGCACGCAAGUUUCUACCGGGCACCGUAAAUGUCCGACUGGAGCCGUUCGGGCGGCUAUAAACAGACCUCAGGCCCGAAGCGUGGCGGCACCUGCCGCCGGUGGUAAAAAAGAUCGGAAGAGCACACGUCU, the “aptazyme ON/OFF ratio” value came out at 1.2.

Turning to GGGUCGCUAGUUUAUAAUCGCGUGGAUAUGGCACGCAAGUUUCUACCGGGCACCGUAAAUGUCCGACUGGAGCCGUUCGGGCGGCUAUAAACAGACCUCAGGCCCGAAGCGUGGCGGCACCUGCCGCCGGUGGUAAAAAAGAUCGGAAGAGCACACGUCU, the “aptazyme ON/OFF ratio” value turned out to be 1.11.

For GGGUCGCUAGUGAAUAAUCGCGUGGAUAUGGCACGCAAGUUUCUACCGGGCACCGUAAAUGUCCGACUGGAGCCGUUCGGGCGGCUAUAAACAGACCUCAGGCCCGAAGCGUGGCGGCACCUGCCGCCGGUGGUAAAAAAGAUCGGAAGAGCACACGUCU, the “aptazyme ON/OFF ratio” value was determined as 1.14.

Consider GGGUCGCUAGUGGAUAAUCGCGUGGAUAUGGCACGCAAGUUUCUACCGGGCACCGUAAAUGUCCGACUGGAGCCGUUCGGGCGGCUAUAAACAGACCUCAGGCCCGAAGCGUGGCGGCACCUGCCGCCGGUGGUAAAAAAGAUCGGAAGAGCACACGUCU, for which the “aptazyme ON/OFF ratio” value was 1.1.

Regarding GGGUCGCUAGUGUAUAAUCGCGUGGAUAUGGCACGCAAGUUUCUACCGGGCACCGUAAAUGUCCGACUGGAGCCGUUCGGGCGGCUAUAAACAGACCUCAGGCCCGAAGCGUGGCGGCACCUGCCGCCGGUGGUAAAAAAGAUCGGAAGAGCACACGUCU, the “aptazyme ON/OFF ratio” value turned out to be 1.15.

Take GGGUCGCUACGCUAUAAUCGCGUGGAUAUGGCACGCAAGUUUCUACCGGGCACCGUAAAUGUCCGACUGGAGCCGUUCGGGCGGCUAUAAACAGACCUCAGGCCCGAAGCGUGGCGGCACCUGCCGCCGGUGGUAAAAAAGAUCGGAAGAGCACACGUCU: the “aptazyme ON/OFF ratio” value was found to be 1.45.
